Laboratory results published in the supplement of paper PMC11316812.
± gives the standard deviation of the averaged measurements.

Experiments:
hTERT-HMEC = experiment: percentage of EdU-negative (G0-arrested) nuclei per well, 72 h; higher = more G0 arrest; settings: reference: sequence is the full UniProt precursor, the tested protein was the secreted form or ectodomain
MCF7 = experiment: as above; settings: reference: sequence is the full UniProt precursor, the tested protein was the secreted form or ectodomain
[1] = protein concentration 0.0111425 µM
[2] = protein concentration 0.111425 µM
[3] = protein concentration 0.03125 µM
[4] = protein concentration 0.3125 µM
[5] = protein concentration 0.00875 µM
[6] = protein concentration 0.0875 µM
[7] = protein concentration 0.0225 µM
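Further: secreted proteins added to cultured cells, EdU pulse at the end, nuclei found by Hoechst imaging, EdU status from nuclear versus surrounding ring intensity ratio, PBS as neutral control.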

Question: Which results are given for “MVLLWEPAGAWLALGLALALGPSVAAAAPRQDCTGVECPPLENCIEEALEPGACCATCVQQGCACEGYQYYDCLQGGFVRGRVPAGQSYFVDFGSTECSCPPGGGKISCQFMLCPELPPNCIEAVVVADSCPQCGQVGCVHAGHKYAAGHTVHLPPCRACHCPDAGGELICYQLPGCHGNFSDAEEGDPERHYEDPYSYDQEVAEVEAATALGGEVQAGAVQAGAGGPPAALGGGSQPLSTIQAPPWPAVLPRPTAAAALGPPAPVQAKARRVTEDSEEEEEEEEEREEMAVTEQLAAGGHRGLDGLPTTAPAGPSLPIQEERAEAGARAEAGARPEENLILDAQATSRSTGPEGVTHAPSLGKAALVPTQAVPGSPRDPVKPSPHNILSTSLPDAAWIPPTREVPRKPQVLPHSHVEEDTDPNSVHSIPRSSPEGSTKDLIETCCAAGQQWAIDNDECLEIPESGTEDNVCRTAQRHCCVSYLQEKSCMAGVLGAKEGETCGAEDNDSCGISLYKQCCDCCGLGLRVRAEGQSCESNPNLGYPCNHVMLSCCEGEEPLIVPEVRRPPEPAAAPRRVSEAEMAGREALSLGTEAELPNSLPGDDQDECLLLPGELCQHLCINTVGSYHCACFPGFSLQDDGRTCRPEGHPPQPEAPQEPALKSEFSQVASNTIPLPLPQPNTCKDNGPCKQVCSTVGGSAICSCFPGYAIMADGVSCEDINECVTDLHTCSRGEHCVNTLGSFHCYKALTCEPGYALKDGECEDVDECAMGTHTCQPGFLCQNTKGSFYCQARQRCMDGFLQDPEGNCVDINECTSLSEPCRPGFSCINTVGSYTCQRNPLICARGYHASDDGTKCVDVNECETGVHRCGEGQVCHNLPGSYRCDCKAGFQRDAFGRGCIDVNECWASPGRLCQHTCENTLGSYRCSCASGFLLAADGKRCEDVNECEAQRCSQECANIYGSYQCYCRQGYQLAEDGHTCTDIDECAQGAGILCTFRCLNVPGSYQCACPEQGYTMTANGRSCKDVDECALGTHNCSEAETCHNIQGSFRCLRFECPPNYVQVSKTKCERTTCHDFLECQNSPARITHYQLNFQTGLLVPAHIFRIGPAPAFTGDTIALNIIKGNEEGYFGTRRLNAYTGVVYLQRAVLEPRDFALDVEMKLWRQGSVTTFLAKMHIFFTTFAL”?
Answer: percentage of EdU-negative (hTERT-HMEC; [1]): 5.72 ± 0.17%; percentage of EdU-negative (hTERT-HMEC; [2]): 6.99 ± 0.78%; percentage of EdU-negative (MCF7; [1]): 23.7 ± 1.3%; percentage of EdU-negative (MCF7; [2]): 25.1 ± 2.6%

Question: How did the “percentage of EdU-negative” value (hTERT-HMEC; [3]) turn out when “MVLLWLTLLLIALPCLLQTKEDPNPPITNLRMKAKAQQLTWDLNRNVTDIECVKDADYSMPAVNNSYCQFGAISLCEVTNYTVRVANPPFSTWILFPENSGKPWAGAENLTCWIHDVDFLSCSWAVGPGAPADVQYDLYLNVANRRQQYECLHYKTDAQGTRIGCRFDDISRLSSGSQSSHILVRGRSAAFGIPCTDKFVVFSQIEILTPPNMTAKCNKTHSFMHWKMRSHFNRKFRYELQIQKRMQPVITEQVRDRTSFQLLNPGTYTVQIRARERVYEFLSAWSTPQRFECDQEEGANTRAWRTSLLIALGTLLALVCVFVICRRYLVMQRLFPRIPHMKDPIGDSFQNDKLVVWEAGKAGLEECLVTEVQVVQKT” was run?
Answer: 4.403 ± 0.019%

Question: What about the “percentage of EdU-negative” value (hTERT-HMEC; [4]) of the same sequence?
Answer: 5.4 ± 0.13%

Question: And the “percentage of EdU-negative” value (MCF7; [3])?
Answer: 26.3 ± 2.9%

Question: And the “percentage of EdU-negative” value (MCF7; [4])?
Answer: 30.4 ± 0.99%

Question: Which results are given for “MVLWESPRQCSSWTLCEGFCWLLLLPVMLLIVARPVKLAAFPTSLSDCQTPTGWNCSGYDDRENDLFLCDTNTCKFDGECLRIGDTVTCVCQFKCNNDYVPVCGSNGESYQNECYLRQAACKQQSEILVVSEGSCATDAGSGSGDGVHEGSGETSQKETSTCDICQFGAECDEDAEDVWCVCNIDCSQTNFNPLCASDGKSYDNACQIKEASCQKQEKIEVMSLGRCQDNTTTTTKSEDGHYARTDYAENANKLEESAREHHIPCPEHYNGFCMHGKCEHSINMQEPSCRCDAGYTGQHCEKKDYSVLYVVPGPVRFQYVLIAAVIGTIQIAVICVVVLCITRKCPRSNRIHRQKQNTGHYSSDNTTRASTRLI [Q9UIK5]”?
Answer: percentage of EdU-negative (hTERT-HMEC; [5]): 5.34 ± 0.33%; percentage of EdU-negative (hTERT-HMEC; [6]): 11.1 ± 2.2%; percentage of EdU-negative (MCF7; [5]): 23.6 ± 4.7%; percentage of EdU-negative (MCF7; [6]): 28.2 ± 2%

Question: What does the source list for “MVMLLLLLSALAGLFGAAEGQAFHLGKCPNPPVQENFDVNKYLGRWYEIEKIPTTFENGRCIQANYSLMENGKIKVLNQELRADGTVNQIEGEATPVNLTEPAKLEVKFSWFMPSAPYWILATDYENYALVYSCTCIIQLFHVDFAWILARNPNLPPETVDSLKNILTSNNIDVKKMTVTDQVNCPKLS”?
Answer: percentage of EdU-negative (hTERT-HMEC; [7]): 4.945 ± 0.022%; percentage of EdU-negative (hTERT-HMEC; protein concentration 0.225 µM): 4.745 ± 0.02%; percentage of EdU-negative (MCF7; [7]): 24.66 ± 0.099%; percentage of EdU-negative (MCF7; protein concentration 0.225 µM): 25.9 ± 3%

Question: Which “percentage of EdU-negative” value (hTERT-HMEC; [7]) does the source give for “MVMRPLWSLLLWEALLPITVTGAQVLSKVGGSVLLVAARPPGFQVREAIWRSLWPSEELLATFFRGSLETLYHSRFLGRAQLHSNLSLELGPLESGDSGNFSVLMVDTRGQPWTQTLQLKVYDAVPRPVVQVFIAVERDAQPSKTCQVFLSCWAPNISEITYSWRRETTMDFGMEPHSLFTDGQVLSISLGPGDRDVAYSCIVSNPVSWDLATVTPWDSCHHEAAPGKASYKDVLLVVVPVSLLLMLVTLFSAWHWCPCSGKKKKDVHADRVGPETENPLVQDLP [Q9P0V8]” here?
Answer: 7.18 ± 1.4%

Question: What about the “percentage of EdU-negative” value (hTERT-HMEC; protein concentration 0.225 µM) of the same sequence?
Answer: 4 ± 0.28%

Question: What about the “percentage of EdU-negative” value (MCF7; [7]) of the same sequence?
Answer: 34.5 ± 7.9%

Question: What about the “percentage of EdU-negative” value (MCF7; protein concentration 0.225 µM) of the same sequence?
Answer: 28.8 ± 0.29%

Question: Which results are given for “MVNLAAMVWRRLLRKRWVLALVFGLSLVYFLSSTFKQEERAVRDRNLLQVHDHNQPIPWKVQFNLGNSSRPSNQCRNSIQGKHLITDELGYVCERKDLLVNGCCNVNVPSTKQYCCDGCWPNGCCSAYEYCVSCCLQPNKQLLLERFLNRAAVAFQNLFMAVEDHFELCLAKCRTSSQSVQHENTYRDPIAKYCYGESPPELFPA [Q9H741]”?
Answer: percentage of EdU-negative (hTERT-HMEC; [7]): 5.34 ± 0.37%; percentage of EdU-negative (hTERT-HMEC; protein concentration 0.225 µM): 7.52 ± 0.6%; percentage of EdU-negative (MCF7; [7]): 26.4 ± 1.1%; percentage of EdU-negative (MCF7; protein concentration 0.225 µM): 27 ± 2.9%

Question: What does the source list for “MVPAAGALLWVLLLNLGPRAAGAQGLTQTPTEMQRVSLRFGGPMTRSYRSTARTGLPRKTRIILEDENDAMADADRLAGPAAAELLAATVSTGFSRSSAINEEDGSSEEGVVINAGKDSTSRELPSATPNTAGSSSTRFIANSQEPEIRLTSSLPRSPGRSTEDLPGSQATLSQWSTPGSTPSRWPSPSPTAMPSPEDLRLVLMPWGPWHCHCKSGTMSRSRSGKLHGLSGRLRVGALSQLRTEHKPCTYQQCPCNRLREECPLDTSLCTDTNCASQSTTSTRTTTTPFPTIHLRSSPSLPPASPCPALAFWKRVRIGLEDIWNSLSSVFTEMQPIDRNQR [Q9BUN1]”?
Answer: percentage of EdU-negative (hTERT-HMEC; [5]): 4.62 ± 0.76%; percentage of EdU-negative (hTERT-HMEC; [6]): 10.6 ± 1.3%; percentage of EdU-negative (MCF7; [5]): 25.2 ± 0.46%; percentage of EdU-negative (MCF7; [6]): 26.9 ± 2.7%
